In the supplement of paper PMC7125110:
± gives the standard error. For some of these results: Variants at the floor of the assay were thinned out.

B1: glmS ribozyme (parent)
chain: AUAAAAGCGCCAGAACUACAGAAAUGUAGUUGACGAGGAGGAGGUUUAUCGAAUUUUCGGCGGAUGCCUCCAAA

Legend:
Conditions in all cases: with glucosamine-6-phosphate
glucosamine-6-phosphate [1] = variants of: B1; assay: kcat; higher = faster cleavage; RNA array
In short: (§1)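 Glucosamine-6-phosphate (40 μM to 10 mM) in HEPES/KCl/Mg(OAc)2 buffer was flowed over sequenced MiSeq chips, and tiles were imaged over ~14 h. Barcoded ribozyme variants there had been transcribed in situ by E. coli RNA polymerase and were tracked through a hybridised Cy3 probe at 37 °C. One- or two-exponential decay fits to per-tile medians, normalised to baseline and to non-cleaving reference variants, gave kobs. kcat and KM came from weighted Michaelis–Menten fits across concentrations.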

glucosamine-6-phosphate [2] = variants of: B1; assay: self-cleavage kobs at 40 uM GlcN6P; higher = faster cleavage; RNA array
In short: as §1

glucosamine-6-phosphate [3] = variants of: B1; assay: self-cleavage kobs at 160 uM GlcN6P; higher = faster cleavage; RNA array
In short: as §1

glucosamine-6-phosphate [4] = variants of: B1; assay: self-cleavage kobs at 640 uM GlcN6P; higher = faster cleavage; RNA array
In short: as §1

glucosamine-6-phosphate [5] = variants of: B1; assay: self-cleavage kobs at 2500 uM GlcN6P; higher = faster cleavage; RNA array
In short: as §1

glucosamine-6-phosphate [6] = variants of: B1; assay: self-cleavage kobs at 10000 uM GlcN6P; higher = faster cleavage; RNA array
In short: as §1

glucosamine-6-phosphate [7] = variants of: B1; assay: KM; higher = weaker cofactor use; RNA array
In short: as §1

Variant | kcat (glucosamine-6-phosphate [1]) [s⁻¹] | self-cleavage kobs at 40 uM GlcN6P (glucosamine-6-phosphate [2]) [s⁻¹] | self-cleavage kobs at 160 uM GlcN6P (glucosamine-6-phosphate [3]) [s⁻¹] | self-cleavage kobs at 640 uM GlcN6P (glucosamine-6-phosphate [4]) [s⁻¹] | self-cleavage kobs at 2500 uM GlcN6P (glucosamine-6-phosphate [5]) [s⁻¹] | self-cleavage kobs at 10000 uM GlcN6P (glucosamine-6-phosphate [6]) [s⁻¹] | KM (glucosamine-6-phosphate [7]) [µM]
G13U C58U C67G | 2.59e-05 ± 5.8e-06 | – | – | – | – | – | –
C16U G29A | 0.0165 ± 0.0058 | 0.00117 ± 0.00016 | 0.00189 ± 0.00052 | 0.0124 ± 0.0019 | 0.0121 ± 0.0031 | 0.0147 ± 0.0029 | –
G7A C34U C70G | 1.85e-05 ± 9.1e-06 | – | – | – | – | – | –
G66U C68A | 6.39e-05 ± 1.2e-05 | – | 3.61e-05 ± 1.6e-05 | 9.21e-05 ± 2.2e-05 | 5.77e-05 ± 8.7e-06 | – | –
U30C U54C | 0.000253 ± 0.00011 | – | 4.17e-05 ± 1.8e-05 | 7.76e-05 ± 1.2e-05 | 9.4e-05 ± 2.7e-05 | 0.000271 ± 4.1e-05 | –
A12G U31A G32U | 6.44e-05 ± 1.1e-06 | – | – | – | – | 4.08e-05 ± 1.1e-05 | 5790 ± 240
U45A U56G | 0.0614 ± 0.024 | 0.000857 ± 0.00011 | 0.00188 ± 0.00049 | 0.0108 ± 0.0024 | 0.0272 ± 0.0087 | 0.0457 ± 0.011 | 3390 ± 1600
A6G A15C | 7.64e-05 ± 3.5e-06 | < 1e-05 | – | – | 4.69e-05 ± 9.3e-06 | 6.45e-05 ± 1.1e-05 | 1700 ± 240
C8U G51U C70U | 1.2e-05 ± 2.2e-06 | < 1e-05 | – | – | – | – | –
G41U U55C | 0.000532 ± 8.1e-05 | – | 3.13e-05 ± 1.4e-05 | 6.02e-05 ± 7.7e-06 | 0.000181 ± 2e-05 | 0.000359 ± 5.4e-05 | 4870 ± 1100
A12G G66A | 0.000586 ± 0.00018 | – | 2.09e-05 ± 9.7e-06 | 0.000105 ± 1.1e-05 | 0.000195 ± 2.3e-05 | 0.000496 ± 5.7e-05 | 3600 ± 1700
C58A C67U | 0.000215 ± 1.7e-05 | – | – | 6.4e-05 ± 1e-05 | 0.000161 ± 2e-05 | 0.000182 ± 1.7e-05 | 1370 ± 290
A14U C58A | 0.000695 ± 4.9e-05 | – | 5.03e-05 ± 1.2e-05 | 0.000162 ± 3.2e-05 | 0.000346 ± 4.3e-05 | 0.000594 ± 7.5e-05 | 2220 ± 300
A12U G41A | 0.00189 ± 0.00051 | 0.000183 ± 2e-05 | 0.00038 ± 0.00011 | 0.00073 ± 0.00014 | 0.00213 ± 0.0004 | 0.00216 ± 0.00028 | 456 ± 210
G13U U54A | 0.00184 ± 0.00033 | 4.3e-05 ± 9.5e-06 | 0.000103 ± 1.6e-05 | 0.000283 ± 5.5e-05 | 0.00105 ± 0.00017 | 0.00144 ± 0.00015 | 2690 ± 770
U30G C58U | 5.55e-05 ± 8.1e-06 | – | – | – | – | 4.54e-05 ± 1.6e-05 | –
